{"source": "paper doi:10.1101/488049", "about": "(bioRxiv, 2018)", "binders": {"B1": {"name": "Hook3-SNAPf labelled with Alexa647 (recombinant human Hook3 with a C-terminal SNAP-tag) (natural protein, UniProt Q86VS8 1-718, looked up)", "chain": "MFSVESLERAELCESLLTWIQTFNVDAPCQTVEDLTNGVVMAQVLQKIDPAYFDENWLNRIKTEVGDNWRLKISNLKKILKGILDYNHEILGQQINDFTLPDVNLIGEHSDAAELGRMLQLILGCAVNCEQKQEYIQAIMMMEESVQHVVMTAIQELMSKESPVSAGNDAYVDLDRQLKKTTEELNEALSAKEEIAQRCHELDMQVAALQEEKSSLLAENQVLMERLNQSDSIEDPNSPAGRRHLQLQTQLEQLQEETFRLEAAKDDYRIRCEELEKEISELRQQNDELTTLADEAQSLKDEIDVLRHSSDKVSKLEGQVESYKKKLEDLGDLRRQVKLLEEKNTMYMQNTVSLEEELRKANAARSQLETYKRQVVELQNRLSEESKKADKLDFEYKRLKEKVDSLQKEKDRLRTERDSLKETIEELRCVQAQEGQLTTQGLMPLGSQESSDSLAAEIVTPEIREKLIRLQHENKMLKLNQEGSDNEKIALLQSLLDDANLRKNELETENRLVNQRLLEVQSQVEELQKSLQDQGSKAEDSVLLKKKLEEHLEKLHEANNELQKKRAIIEDLEPRFNNSSLKIEELQEALRKKEEEMKQMEERYKKYLEKAKSVIRTLDPKQNQGAAPEIQALKNQLQERDRLFHSLEKEYEKTKSQREMEEKYIVSAWYNMGMTLHKKAAEDRLASTGSGQSFLARQRQATSSRRSYPGHVQPATAR", "modifications": "Alexa Fluor 647 on the SNAP tag (SNAP-Surface Alexa Fluor 647)"}}, "biological_target": "T1, KIF1C-GFP (recombinant full-length human KIF1C, 6His-KIF1C-GFP) (human, UniProt O43896 1-1103)", "T1 sequence (looked up)": "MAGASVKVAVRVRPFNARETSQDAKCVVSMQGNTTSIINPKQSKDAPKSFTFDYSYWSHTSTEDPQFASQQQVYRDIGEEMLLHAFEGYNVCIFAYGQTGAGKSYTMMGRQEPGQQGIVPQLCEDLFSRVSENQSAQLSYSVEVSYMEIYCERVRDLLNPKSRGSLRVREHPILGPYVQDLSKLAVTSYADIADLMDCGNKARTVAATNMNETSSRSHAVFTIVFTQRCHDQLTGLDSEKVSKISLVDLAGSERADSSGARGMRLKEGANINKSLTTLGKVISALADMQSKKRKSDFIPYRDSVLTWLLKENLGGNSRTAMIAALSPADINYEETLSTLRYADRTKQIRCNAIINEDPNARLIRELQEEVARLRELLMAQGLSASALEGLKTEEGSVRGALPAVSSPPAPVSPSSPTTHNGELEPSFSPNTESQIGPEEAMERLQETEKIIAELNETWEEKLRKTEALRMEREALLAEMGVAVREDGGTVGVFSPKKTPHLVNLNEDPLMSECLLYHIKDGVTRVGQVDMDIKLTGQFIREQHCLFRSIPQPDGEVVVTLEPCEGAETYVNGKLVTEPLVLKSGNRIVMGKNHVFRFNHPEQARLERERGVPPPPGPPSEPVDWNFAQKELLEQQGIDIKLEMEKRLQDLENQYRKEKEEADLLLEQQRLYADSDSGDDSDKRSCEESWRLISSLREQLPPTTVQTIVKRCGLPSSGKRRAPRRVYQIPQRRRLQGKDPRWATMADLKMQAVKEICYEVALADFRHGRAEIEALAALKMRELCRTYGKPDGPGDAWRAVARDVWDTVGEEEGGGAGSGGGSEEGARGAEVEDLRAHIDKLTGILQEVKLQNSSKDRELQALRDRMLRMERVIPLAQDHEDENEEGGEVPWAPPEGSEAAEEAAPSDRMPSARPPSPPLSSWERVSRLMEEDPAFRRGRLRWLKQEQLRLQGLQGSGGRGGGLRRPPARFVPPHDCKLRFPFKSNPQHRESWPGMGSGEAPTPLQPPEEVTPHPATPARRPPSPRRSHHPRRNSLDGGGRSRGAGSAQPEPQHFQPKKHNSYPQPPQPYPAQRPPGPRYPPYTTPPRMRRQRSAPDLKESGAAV", "assay": "cell-based or functional assay", "data": [{"binder": "B1", "values": [{"measurement": "landing rate of KIF1C-GFP on microtubules in single molecule assays, 320 nM KIF1C preincubated with 500 nM Hook3-647", "result": 2, "unit": "fold"}]}]}
